Assay results: patent US20230295310A1 (ABCELLERA BIOLOGICS, published 2023)
Where a chain is given by its changes, count along the chain named.

B1: GOMP001_bsAb_012 (bispecific antibody, human IgG1, kappa, L234A L235A)
heavy 1: EVQLVESGGGLVQPGGSLRLSCAASGFTLSSYTMNWVRYAPGKGLEWVSYISSSSRTIYYSDRVKGRFSISRDNAKNSLYLQMNSLRDEDTALYYCAREDYYDSSGFDNWGRGTLVTVSSASTKGPSVFPLAPSSKSTSGGTAALGCLVKDYFPEPVTVSWNSGALTSGVHTFPAVLQSSGLYSLSSVVTVPSSSLGTQTYICNVNHKPSNTKVDKKVEPKSCDKTHTCPPCPAPEAAGGPSVFLFPPKPKDTLMISRTPEVTCVVVDVSHEDPEVKFNWYVDGVEVHNAKTKPREEQYNSTYRVVSVLTVLHQDWLNGKEYKCKVSNKALPAPIEKTISKAKGQPRRPRVYTLPPSREEMTKNQVSLVCLVKGFYPSDIAVEWESNGQPENNYKTTPPVLDSDGSFFLYSVLTVDKSRWQQGNVFSCSVMHEALHNHYTQKSLSLSPG
light 1: DIRMTQSPSSFSASTGDRVTITCRASQGISSYLAWYQRKPGDAPKLLIYTASTLQSGVPSRFSGSGSGTDFTLTIRSLQSEDFATYYCQQYYSYPRTFGQGTKVEIKRTVAAPSVFIFPPSDEQLKSGTASVVCLLNNFYPREAKVQWKVDNALQSGNSQESVTEQDSKDSTYSLSSTLTLSKADYEKHKVYACEVTHQGLSSPVTKSFNRGEC
heavy 2: QVQLVQSGAEVKKPGASVKVSCKASGYTFTSHWMHWVRYAPGQGLEWIGEFNPSNGRTNYNEKFKSKATMTVDTSTNTAYMELSSLRSEDTAVYYCASRDYDYDGRYFDYWGRGTLVTVSSASTKGPSVFPLAPSSKSTSGGTAALGCLVKDYFPEPVTVSWNSGALTSGVHTFPAVLQSSGLYSLSSVVTVPSSSLGTQTYICNVNHKPSNTKVDKKVEPKSCDKTHTCPPCPAPEAAGGPSVFLFPPKPKDTLMISRTPEVTCVVVDVSHEDPEVKFNWYVDGVEVHNAKTKPREEQYNSTYRVVSVLTVLHQDWLNGKEYKCKVSNKALPAPIEKTISKAKGQPRRPRVYTLPPSREEMTKNQVSLVCLVKGFYPSDIAVEWESNGQPENNYKTTPPVLDSDGSFFLYSVLTVDKSRWQQGNVFSCSVMHEALHNHYTQKSLSLSPG
light 2: DIQMTQSPSSLSASVGDRVTITCSASSSVTYMYWYQRKPGDAPKLLIYDTSNLASGVPSRFSGSGSGTDYTFTISSLQPEDIATYYCQQWSSHIFTFGQGTKVEIKRTVAAPSVFIFPPSDEQLKSGTASVVCLLNNFYPREAKVQWKVDNALQSGNSQESVTEQDSKDSTYSLSSTLTLSKADYEKHKVYACEVTHQGLSSPVTKSFNRGEC
B2: GOMP001_bsAb_015 (bispecific antibody, human IgG1, kappa, L234A L235A)
heavy 1: QVQLVQSGAEVKKPGASVKVSCKASGYTFTSHWMHWVRKAPGQGLEWIGEFNPSNGRTNYNEEFKSKATMTVDTSTNTAYMELSSLRSEDTAVYYCASRDYDYDGRYFDYWGQGTLVTVSSASTKGPSVFPLAPSSKSTSGGTAALGCLVADYFPEPVTVSWNSGALTSGVHTFPAVLQSSGLYSLSSVVTVPSSSLGTQTYICNVNHKPSNTKVDEKVEPKSCDKTHTCPPCPAPEAAGGPSVFLFPPKPKDTLMISRTPEVTCVVVDVSHEDPEVKFNWYVDGVEVHNAKTKPREEQYNSTYRVVSVLTVLHQDWLNGKEYKCKVSNKALPAPIEKTISKAKGQPREPQVYTLPPSREEMTDNQVSLTCLVKGFYPSDIAVEWESNGQPENNYKTTPPVLMSDGSFFLASKLTVDKSRWQQGNVFSCSVMHEALHNHYTQKSLSLSPG
light 1: B1 light 2 with D1R, R37D, D41K, E122K, S130R
heavy 2: QVQLVESGGGVVQPGRSLRLSCAASGFTFSGYGMHWVRYAPGKGLDWVAIIYYNGNNKYYADRVKGRFTISRDNSKNTLYLQMNSLRAEDTAVYYCARGGGYNWFDPWGRGTLVIVSSASTKGPSVFPLAPSSKSTSGGTAALGCLVKDYFPEPVTVSWNSGALTSGVHTFPAVLQSSGLYSLSSVVTVPSSSLGTQTYICNVNHKPSNTKVDKKVEPKSCDKTHTCPPCPAPEAAGGPSVFLFPPKPKDTLMISRTPEVTCVVVDVSHEDPEVKFNWYVDGVEVHNAKTKPREEQYNSTYRVVSVLTVLHQDWLNGKEYKCKVSNKALPAPIEKTISKAKGQPRRPRVYTLPPSREEMTKNQVSLVCLVKGFYPSDIAVEWESNGQPENNYKTTPPVLDSDGSFFLYSVLTVDKSRWQQGNVFSCSVMHEALHNHYTQKSLSLSPG
light 2: not shown
B3: GOMP001_bsAb_016 (bispecific antibody, human IgG1, kappa, L234A L235A)
heavy 1: B2 heavy 2
light 1: not shown
heavy 2: B1 heavy 2
light 2: B1 light 2
B4: GOMP001_bsAb_017 (bispecific antibody, human IgG1, kappa, L234A L235A)
heavy 1: B2 heavy 1
light 1: B1 light 2 with D1R, R37D, D41K, E122K, S130R
heavy 2: EVQLVESGGDLVQPGRSLRLSCAASGFTFDDCVIHWVRYAPGKGLEWVSGITWNSGRIGYADRVKGRFTISRDNAKNSLYLQMNSLRVEDTALYYCAKEGNYDFWSTYYRGYFDLWGRGTLVTVSSASTKGPSVFPLAPSSKSTSGGTAALGCLVKDYFPEPVTVSWNSGALTSGVHTFPAVLQSSGLYSLSSVVTVPSSSLGTQTYICNVNHKPSNTKVDKKVEPKSCDKTHTCPPCPAPEAAGGPSVFLFPPKPKDTLMISRTPEVTCVVVDVSHEDPEVKFNWYVDGVEVHNAKTKPREEQYNSTYRVVSVLTVLHQDWLNGKEYKCKVSNKALPAPIEKTISKAKGQPRRPRVYTLPPSREEMTKNQVSLVCLVKGFYPSDIAVEWESNGQPENNYKTTPPVLDSDGSFFLYSVLTVDKSRWQQGNVFSCSVMHEALHNHYTQKSLSLSPG
light 2: DIQMTQSPSSLSASVGDRVTITCRASQGIRNDLGWYQRKPGDAPKRLIYAASSLQGGVPLRFSGSGSGTEFTLTISSLQPEDFATYYCLQHNSYPYTFGQGTKLEIKRTVAAPSVFIFPPSDEQLKSGTASVVCLLNNFYPREAKVQWKVDNALQSGNSQESVTEQDSKDSTYSLSSTLTLSKADYEKHKVYACEVTHQGLSSPVTKSFNRGEC
B5: GOMP001_bsAb_013 (bispecific antibody, human IgG1, kappa, L234A L235A)
heavy 1: B2 heavy 1
light 1: B1 light 2 with D1R, R37D, D41K, E122K, S130R
heavy 2: QVQLVQSGAEVKKPGASVKVSCKASGYTFTSYDINWVRYATGQGLEWMGWMNPKSGKTGYAQKFQGRITMTRNTPISTVYMDLSSLRSEDTAVYYCAREGHYDFWTGYYSFDYWGRGTLVTVSSASTKGPSVFPLAPSSKSTSGGTAALGCLVKDYFPEPVTVSWNSGALTSGVHTFPAVLQSSGLYSLSSVVTVPSSSLGTQTYICNVNHKPSNTKVDKKVEPKSCDKTHTCPPCPAPEAAGGPSVFLFPPKPKDTLMISRTPEVTCVVVDVSHEDPEVKFNWYVDGVEVHNAKTKPREEQYNSTYRVVSVLTVLHQDWLNGKEYKCKVSNKALPAPIEKTISKAKGQPRRPRVYTLPPSREEMTKNQVSLVCLVKGFYPSDIAVEWESNGQPENNYKTTPPVLDSDGSFFLYSVLTVDKSRWQQGNVFSCSVMHEALHNHYTQKSLSLSPG
light 2: B4 light 2 with K39T, G56S, L60S, N92Y
B6: GOMP001_bsAb_014 (bispecific antibody, human IgG1, kappa, L234A L235A)
heavy 1: B5 heavy 2
light 1: B4 light 2 with K39T, G56S, L60S, N92Y
heavy 2: B1 heavy 2
light 2: B1 light 2

Target: human EGFR, C-terminal eGFP-tagged, on CHO-K1 cells (human, UniProt P00533 25-1210)
Test: cell-based or functional assay

| Binder | EC50 CHO-K1 EGFR Low (nM); T cell activation bioassay, luciferase [nM] | EC50 CHO-K1 EGFR Med (nM); T cell activation bioassay, luciferase [nM] |
| --- | --- | --- |
| B1 | 0.147 | 0.0234 |
| B2 | 0.515 | 0.0267 |
| B3 | 0.0531 | 0.00316 |
| B4 | 0.945 | 0.102 |
| B5 | 1.31 | 0.239 |
| B6 | 0.238 | 0.0722 |
